Laboratory results from US20230124851A1 (INHIBRX LNC, published 2023).
Numbering of substitutions follows the chain as printed.

T1: human B7H3 (CD276) on the cell surface (human, UniProt Q5ZPR3 29-534)
T1 construct: B7H3 on A375 and other B7H3-positive or transfected cells
T1 sequence: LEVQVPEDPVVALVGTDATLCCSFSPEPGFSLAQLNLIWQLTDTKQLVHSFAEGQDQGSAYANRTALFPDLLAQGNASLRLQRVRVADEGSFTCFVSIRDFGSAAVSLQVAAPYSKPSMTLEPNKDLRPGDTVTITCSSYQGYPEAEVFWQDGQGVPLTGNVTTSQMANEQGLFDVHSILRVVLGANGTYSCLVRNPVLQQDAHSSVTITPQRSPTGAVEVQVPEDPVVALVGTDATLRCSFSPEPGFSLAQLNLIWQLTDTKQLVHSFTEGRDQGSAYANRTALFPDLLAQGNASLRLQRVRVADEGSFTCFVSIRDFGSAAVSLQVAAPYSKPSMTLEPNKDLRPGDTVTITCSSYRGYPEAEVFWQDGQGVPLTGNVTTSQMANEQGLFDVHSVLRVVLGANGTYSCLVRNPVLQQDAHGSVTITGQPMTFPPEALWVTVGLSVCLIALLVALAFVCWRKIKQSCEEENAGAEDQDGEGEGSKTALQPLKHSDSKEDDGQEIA

B1: cx4136 (bispecific antibody)
chain 1: EVQLVESGGGEVQPGGSLRLSCAASGSTFSSYHMSWFRQAPGKQREPVATSHHGGTTNYAGSVKGRFTISRDNAKNTVYLQMNTLRAEDTAVYYCKADHGYQGRGYWGQGTLVTVKPDKTHTCPPCPAPGGPSVFLFPPKPKDTLMISRTPEVTCVVVDVSHEDPEVKFNWYVDGVEVHNAKTKPREEQYNSTYRVVSVLTVLHQDWLNGKEYKCKVSNKALPAPIEKTISKAKGQPREPQVYTLPPCRDELTKNQVSLWCLVKGFYPSDIAVEWESNGQPENNYKTTPPVLDSDGSFFLYSKLTVDKSRWQQGNVFSCSVMHEALHNHYTQKSLSLSPTGGGGGSGGGGGSGGGGGSEVQLVESGGGLVQPGGSLRLSCAASGFTFNTYAMNWVRQAPGKCLEWVARIRSKYNNYATYYADSVKGRFTISRDDAKNTLYLQMSSLRAEDTAVYYCVRHGNFGNSYVSWFAYWGQGTLVTVKPEVQLVESGGGEVQPGGSLRLSCAASGSTFSSYHMSWFRQAPGKQREPVATSHHGGTTNYAGSVKGRFTISRDNAKNTVYLQMNTLRAEDTAVYYCKADHGYQGRGYWGQGTLVTVKP
chain 2: DKTHTCPPCPAPGGPSVFLFPPKPKDTLMISRTPEVTCVVVDVSHEDPEVKFNWYVDGVEVHNAKTKPREEQYNSTYRVVSVLTVLHQDWLNGKEYKCKVSNKALPAPIEKTISKAKGQPREPQVCTLPPSRDELTKNQVSLSCAVKGFYPSDIAVEWESNGQPENNYKTTPPVLDSDGSFFLVSKLTVDKSRWQQGNVFSCSVMHEALHNRYTQKSLSLSPTGGGGGSGGGGGSGGGGGSQAVVTQEPSLTVSPGGTVTLTCGSSTGAVTTSNYANWVQQKPGQAFRGLIGGTNKRAPGVPARFSGSLLGGKAALTISGAQPEDEADYYCALWYSNHWVFGCGTKLTVL
B2: cx4641 (bispecific antibody)
chain 1: EVQLVESGGGEVQPGGSLRLSCAASGSTFSSYHMSWFRQAPGKQREPVATSHHGGTTNYAGSVKGRFTISRDNAKNTVYLQMNTLRAEDTAVYYCKADHGYQGRGYWGQGTLVTVKPDKTHTCPPCPAPGGPSVFLFPPKPKDTLMISRTPEVTCVVVDVSHEDPEVKFNWYVDGVEVHNAKTKPREEQYNSTYRVVSVLTVLHQDWLNGKEYKCKVSNKALPAPIEKTISKAKGQPREPQVYTLPPCRDELTKNQVSLWCLVKGFYPSDIAVEWESNGQPENNYKTTPPVLDSDGSFFLYSKLTVDKSRWQQGNVFSCSVMHEALHNHYTQKSLSLSPTGGSGGGGIEPDIGGSGGSEVQLVESGGGLVQPGGSLRLSCAASGFTFNTYAMNWVRQAPGKCLEWVARIRSKYNNYATYYADSVKGRFTISRDDAKNTLYLQMSSLRAEDTAVYYCVRHGNFGNSYVSWFAYWGQGTLVTVKPQLQLQESGGGLVQAGDSLRLSCAASGFSFGSNVMMWVRQAPGKGPEWVSTIYSSGTGTFYADSVKGRFTISRNNAKNTLYLQMNSLKPDDTAVYYCATSGPVRGWGPRSQGTLVTVKP
chain 2: B1 chain 2 with G226S, S229G, G231I, G232E, G233P, G234D, S235I, G238S
notes: Printed composition is the same as cx4645
B3: cx3855 (bispecific antibody)
chain 1: B1 chain 1 with G343S, S346G, G348I, G349E, G350P, G351D, S352I, G355S
chain 2: DKTHTCPPCPAPGGPSVFLFPPKPKDTLMISRTPEVTCVVVDVSHEDPEVKFNWYVDGVEVHNAKTKPREEQYNSTYRVVSVLTVLHQDWLNGKEYKCKVSNKALPAPIEKTISKAKGQPREPQVCTLPPSRDELTKNQVSLSCAVKGFYPSDIAVEWESNGQPENNYKTTPPVLDSDGSFFLVSKLTVDKSRWQQGNVFSCSVMHEALHNRYTQKSLSLSPTGGSGGGGIEPDIGGSGGSQAVVTQEPSLTVSPGGTVTLTCGSSTGAVTTSNYANWVQQKPGQAFRGLIGGTNKRAPGVPARFSGSLLGGKAALTISGAQPEDEADYYCALWYSNHWVFGCGTKLTVLEVQLLESGGGEVQPGGSLRLSCAASGFSFSINAMGWYRQAPGKRREFVAAIESGRNTVYAESVKGRFTISRDNAKNTVYLQMSSLRAEDTAVYYCGLLKGNRVVSPSVAYWGQGTLVTVKP
notes: chain 2 ends in the 4-1BB sdAb RH3v5-1; Printed composition is the same as cx4904
B4: cx4137 (bispecific antibody)
chain 1: B1 chain 1
chain 2: B3 chain 2 with S226G, G229S, I231G, E232G, P233G, D234G, I235S, S238G
notes: chain 2 ends in the 4-1BB sdAb RH3v5-1
B5: cx3072 (bispecific antibody)
chain 1: EVQLVESGGGEVQPGGSLRLSCAASGSTFSSYHMSWFRQAPGKQREPVATSHHGGTTNYAGSVKGRFTISRDNAKNTVYLQMNTLRAEDTAVYYCKADHGYQGRGYWGQGTLVTVKPPGGGGDKTHTCPPCPAPELLGGPSVFLFPPKPKDTLMISRTPEVTCVVVDVSHEDPEVKFNWYVDGVEVHNAKTKPREEQYNSTYRVVSVLTVLHQDWLNGKEYKCKVSNKALPAPIEKTISKAKGQPREPQVYTLPPCRDELTKNQVSLWCLVKGFYPSDIAVEWESNGQPENNYKTTPPVLDSDGSFFLYSKLTVDKSRWQQGNVFSCSVMHEALHNHYTQKSLSLSPTGGGGGSGGGGGSGGGGGSEVQLVESGGGLVQPGGSLRLSCAASGFTFNTYAMNWVRQAPGKCLEWVARIRSKYNNYATYYADSVKGRFTISRDDAKNTLYLQMSSLRAEDTAVYYCVRHGNFGNSYVSWFAYWGQGTLVTVKPGGGGEVQLVESGGGEVQPGGSLRLSCAPSERTFSTYTMGWFRQAPGKEREFVAVVNWGGGSKYYAESVKGRFTISRDNAKNTVYLQMSSLRAEDTAVYYCAAGGAYSGPYYDTRQYTYWGQGTLVTVKP
chain 2: not shown
notes: IgG1-Hole 294, 298 or 446; VH13 237; VL10 265)
B6: cx3090 (bispecific antibody, not shown: a dimerising Fc or GST)
chain 1: EVQLVESGGGEVQPGGSLRLSCAASGSTFSSYHMSWFRQAPGKQREPVATSHHGGTTNYAGSVKGRFTISRDNAKNTVYLQMNTLRAEDTAVYYCKADHGYQGRGYWGQGTLVTVKPGGSGGGGIEPDIGGSGGSEVQLVESGGGLVQPGGSLRLSCAASGFTFNTYAMNWVRQAPGKCLEWVARIRSKYNNYATYYADSVKGRFTISRDDAKNTLYLQMSSLRAEDTAVYYCVRHGNFGNSYVSWFAYWGQGTLVTVKPEVQLVESGGGEVQPGGSLRLSCAPSERTFSTYTMGWFRQAPGKEREFVAVVNWGGGSKYYAESVKGRFTISRDNAKNTVYLQMSSLRAEDTAVYYCAAGGAYSGPYYDTRQYTYWGQGTLVTVKP
chain 2: GGSGGGGIEPDIGGSGGSQAVVTQEPSLTVSPGGTVTLTCGSSTGAVTTSNYANWVQQKPGQAFRGLIGGTNKRAPGVPARFSGSLLGGKAALTISGAQPEDEADYYCALWYSNHWVFGCGTKLTVLEVQLLESGGGEVQPGGSLRLSCAASGFSFSINAMGWYRQAPGKRREFVAAIESGRNTVYAESVKGRFTISRDNAKNTVYLQMSSLRAEDTAVYYCGLLKGNRVVSPSVAYWGQGTLVTVKP
notes: as for B4
B7: cx3243 (bispecific antibody, not shown: a dimerising Fc or GST)
chain 1: B6 chain 1 with S120G, G123S, I125G, E126G, P127G, D128G, I129S, S132G
chain 2: B6 chain 2 with S3G, G6S, I8G, E9G, P10G, D11G, I12S, S15G
notes: as for B4

How the values were obtained:
[1] = molecular target: T1, human B7H3 (CD276) on the cell surface; assay: flow cytometry titration on A375 cells (B7H3+); column head 'Affinity B7H3' (apparent)
Experimental: (§1) Binding of exemplary B7H3-targeting constrained CD3 engaging constructs set forth in Table E3 to CD3 on the surface of primary T cells or B7H3-expressing cells (A375) was assessed by flow cytometry. The T cells were primary T-cells that were negatively enriched from PBMCs isolated from healthy human donor peripheral blood leukopaks. Bound construct was detected with fluorophore-conjugated secondary antibodies specific for the human Fc (anti-human IgG APC secondary antibody) and binding was measured by flow cytometry. Cells incubated with secondary antibody only served as negative controls. Binding was compared to Dual-affinity Re-targeting Antibody (DART)-monomeric Fc format targeting B7H3 and CD3 (DART-Fc B7H3xCD3; see e.g. WO2017030926A1).
(§2) Table E4 summarizes the affinity of exemplary molecules for B7H3 or CD3, as determined from flow cytometry, in these studies.

[2] = molecular target: T2, CD3 on the surface of human T cells (human, UniProt P07766 23-207); assay: flow cytometry on primary human T cells; column head 'Affinity CD3'
T2 construct: whole, on cells; Part of the CD3/TCR complex on cells; also called CD3 epsilon
T2 sequence (P07766 23-207): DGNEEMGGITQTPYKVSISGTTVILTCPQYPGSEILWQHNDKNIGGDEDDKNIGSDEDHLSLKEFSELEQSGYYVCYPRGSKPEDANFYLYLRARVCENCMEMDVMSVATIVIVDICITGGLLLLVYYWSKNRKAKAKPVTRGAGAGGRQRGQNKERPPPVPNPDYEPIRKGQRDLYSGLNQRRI
Experimental: as §1, §2

Binder	Kd [1]	Kd [2]
B1	0.368 nM	> 200 nM
B2	0.379 nM	> 200 nM
B3	0.395 nM	> 200 nM
B4	0.375 nM	> 200 nM
B5	0.539 nM	> 200 nM
B6	0.523 nM	> 200 nM
B7	0.477 nM	> 200 nM
